# Experimental data from US20220332804A1 (CSL INNOVATION, published 2022).
# T1: human C2 R714A (human, UniProt P06681 21-752)
# T1 sequence: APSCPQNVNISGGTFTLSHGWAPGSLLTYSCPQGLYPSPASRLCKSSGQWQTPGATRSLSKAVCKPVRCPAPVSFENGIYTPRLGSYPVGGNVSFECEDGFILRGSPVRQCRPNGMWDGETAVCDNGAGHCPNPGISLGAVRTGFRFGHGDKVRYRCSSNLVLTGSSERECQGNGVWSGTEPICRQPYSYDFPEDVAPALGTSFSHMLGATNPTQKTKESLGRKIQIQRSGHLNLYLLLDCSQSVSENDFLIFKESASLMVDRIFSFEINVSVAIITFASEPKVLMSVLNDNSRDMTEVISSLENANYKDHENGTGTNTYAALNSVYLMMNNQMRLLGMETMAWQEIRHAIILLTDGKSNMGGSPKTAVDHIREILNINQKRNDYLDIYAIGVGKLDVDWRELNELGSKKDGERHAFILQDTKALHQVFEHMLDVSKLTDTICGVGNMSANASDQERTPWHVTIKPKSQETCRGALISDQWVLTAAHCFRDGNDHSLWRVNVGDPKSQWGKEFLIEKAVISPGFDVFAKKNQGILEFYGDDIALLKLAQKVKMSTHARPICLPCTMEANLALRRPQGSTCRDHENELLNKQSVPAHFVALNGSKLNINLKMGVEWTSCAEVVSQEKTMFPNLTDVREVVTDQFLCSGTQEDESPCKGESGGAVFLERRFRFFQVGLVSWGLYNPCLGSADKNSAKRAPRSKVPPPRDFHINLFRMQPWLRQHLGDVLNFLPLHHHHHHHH
# T2: human C2 W420A (human, UniProt P06681 21-752)
# T2 sequence: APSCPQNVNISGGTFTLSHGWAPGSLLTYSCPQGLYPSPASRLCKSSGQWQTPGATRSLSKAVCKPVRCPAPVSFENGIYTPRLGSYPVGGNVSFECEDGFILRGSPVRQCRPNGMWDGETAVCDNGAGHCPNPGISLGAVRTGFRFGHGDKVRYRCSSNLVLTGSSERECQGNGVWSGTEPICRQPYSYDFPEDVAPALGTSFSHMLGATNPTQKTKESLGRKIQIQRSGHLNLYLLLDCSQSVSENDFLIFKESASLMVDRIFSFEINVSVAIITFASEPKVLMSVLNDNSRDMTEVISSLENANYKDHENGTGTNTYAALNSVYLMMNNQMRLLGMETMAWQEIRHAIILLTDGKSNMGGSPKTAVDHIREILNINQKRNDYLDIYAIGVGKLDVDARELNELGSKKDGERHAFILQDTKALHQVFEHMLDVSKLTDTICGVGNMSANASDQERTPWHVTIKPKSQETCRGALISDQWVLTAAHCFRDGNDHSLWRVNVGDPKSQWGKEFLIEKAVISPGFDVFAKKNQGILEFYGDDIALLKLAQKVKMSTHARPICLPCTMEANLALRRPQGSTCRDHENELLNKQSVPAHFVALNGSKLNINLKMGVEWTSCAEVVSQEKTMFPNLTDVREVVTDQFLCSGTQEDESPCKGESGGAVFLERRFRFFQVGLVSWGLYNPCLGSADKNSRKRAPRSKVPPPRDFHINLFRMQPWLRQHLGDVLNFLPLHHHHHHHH
# T3: human C2 L271A (human, UniProt P06681 21-752)
# T3 sequence: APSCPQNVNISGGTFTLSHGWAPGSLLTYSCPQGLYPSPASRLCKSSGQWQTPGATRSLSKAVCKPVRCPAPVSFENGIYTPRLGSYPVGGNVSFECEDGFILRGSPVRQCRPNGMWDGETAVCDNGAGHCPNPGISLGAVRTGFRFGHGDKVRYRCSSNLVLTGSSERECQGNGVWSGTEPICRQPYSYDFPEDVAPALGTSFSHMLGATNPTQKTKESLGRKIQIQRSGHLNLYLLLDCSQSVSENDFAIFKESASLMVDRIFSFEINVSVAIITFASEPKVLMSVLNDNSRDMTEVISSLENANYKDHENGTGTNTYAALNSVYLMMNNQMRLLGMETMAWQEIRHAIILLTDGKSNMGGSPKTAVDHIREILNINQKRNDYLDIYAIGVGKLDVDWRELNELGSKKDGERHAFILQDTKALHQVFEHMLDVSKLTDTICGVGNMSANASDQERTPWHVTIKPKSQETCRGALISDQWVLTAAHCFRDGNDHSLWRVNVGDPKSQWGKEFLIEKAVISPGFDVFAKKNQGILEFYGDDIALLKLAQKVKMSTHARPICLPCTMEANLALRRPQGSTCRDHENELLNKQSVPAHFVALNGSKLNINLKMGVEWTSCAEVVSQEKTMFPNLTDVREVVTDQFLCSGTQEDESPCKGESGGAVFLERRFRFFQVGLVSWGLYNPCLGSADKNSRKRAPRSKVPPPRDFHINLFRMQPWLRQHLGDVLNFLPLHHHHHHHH
# T4: human C2 G707A (human, UniProt P06681 21-752)
# T4 sequence: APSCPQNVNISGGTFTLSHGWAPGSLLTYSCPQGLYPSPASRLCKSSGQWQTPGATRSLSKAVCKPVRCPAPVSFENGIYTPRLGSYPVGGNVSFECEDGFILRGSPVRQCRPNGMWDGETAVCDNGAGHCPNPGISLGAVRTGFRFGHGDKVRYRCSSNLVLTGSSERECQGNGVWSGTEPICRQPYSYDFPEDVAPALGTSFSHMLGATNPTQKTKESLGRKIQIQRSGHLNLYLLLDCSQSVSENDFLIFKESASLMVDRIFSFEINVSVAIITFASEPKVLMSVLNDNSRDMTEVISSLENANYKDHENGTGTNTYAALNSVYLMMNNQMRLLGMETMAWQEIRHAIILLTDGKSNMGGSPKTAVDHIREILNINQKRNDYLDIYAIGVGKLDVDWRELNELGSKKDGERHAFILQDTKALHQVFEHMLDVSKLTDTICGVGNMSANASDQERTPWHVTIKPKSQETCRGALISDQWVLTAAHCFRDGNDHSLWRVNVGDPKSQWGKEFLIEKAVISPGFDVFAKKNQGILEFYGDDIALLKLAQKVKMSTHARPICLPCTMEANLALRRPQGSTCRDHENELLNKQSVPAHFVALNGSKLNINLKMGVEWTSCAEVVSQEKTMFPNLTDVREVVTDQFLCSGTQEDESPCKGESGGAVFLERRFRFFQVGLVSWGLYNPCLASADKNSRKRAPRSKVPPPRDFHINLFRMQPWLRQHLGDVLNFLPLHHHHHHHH
# Assays:
# Assay in all cases: SPR, antibody captured, C2 as analyte;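 also: biacore SPR at 37 °C, anti-C2 mAbs captured via goat anti-human IgG on CM5 chips, double-referenced sensorgrams fit to a 1:1 kinetic or steady-state model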
# human C2 R714A = molecular target: T1, human C2 R714A
# human C2 W420A = molecular target: T2, human C2 W420A
# human C2 L271A = molecular target: T3, human C2 L271A
# human C2 G707A = molecular target: T4, human C2 G707A
binder,measurement,setting,value
"RF16-226 (antibody, human IgG4 S228P, lambda, pH-dependent anti-C2 antibody from a phage display library; also called WT) heavy: not shown light: SYELTQPPSVSVSPGQTARITCSGDALTSKYVAWYQQKSGLAPLLVIYEDTRRPSGIPAKFSGSSSGSVATLTISGAHGDDEADYYCYSTDASGHQRVFGGGTKLTVLSQPKAAPSVTLFPPSSEELQANKATLVCLISDFYPGAVTVAWKADGSPVKAGVETTKPSKQSNNKYAASSYLSLTPEQWKSHRSYSCQVTHEGSTVEKTVAPTECS",Kd,human C2 R714A,53 nM
same,Kd,human C2 W420A,15.6 nM
same,Kd,human C2 L271A,10.8 nM
same,Kd,human C2 G707A,19.4 nM
